Our source for the percent of parent values is article PMC5906670, “Structural basis of epilepsy-related ligand–receptor complex LGI1–ADAM22” (Nature Communications, 2018).

The chains are these.
B1: ADAM22 ECD-FLAG [human] / LGI1-His6 [human] (parent)
chain 1: SKRQLRRYPRNVEEETKYIELMIVNDHLMFKKHRLSVVHTNTYAKSVVNMADLIYKDQLKTRIVLVAMETWATDNKFAISENPLITLREFMKYRRDFIKEKSDAVHLFSGSQFESSRSGAAYIGGICSLLKGGGVNEFGKTDLMAVTLAQSLAHNIGIISDKRKLASGECKCEDTWSGCIMGDTGYYLPKKFTQCNIEEYHDFLNSGGGACLFNKPSKLLDPPECGNGFIETGEECDCGTPAECVLEGAECCKKCTLTQDSQCSDGLCCKKCKFQPMGTVCREAVNDCDIRETCSGNSSQCAPNIHKMDGYSCDGVQGICFGGRCKTRDRQCKYIWGQKVTASDKYCYEKLNIEGTEKGNCGKDKDTWIQCNKRDVLCGYLLCTNIGNIPRLGELDGEITSTLVVQQGRTLNCSGGHVKLEEDVDLGYVEDGTPCGPQMMCLEHRCLPVASFNFSTCLSSKEGTICSGNGVCSNELKCVCNRHWIGSDCNTYFPHNDDAKTGITLSG
chain 2: KKPAKPKCPAVCTCTKDNALCENARSIPRTVPPDVISLSFVRSGFTEISEGSFLFTPSLQLLLFTSNSFDVISDDAFIGLPHLEYLFIENNNIKSISRHTFRGLKSLIHLSLANNNLQTLPKDIFKGLDSLTNVDLRGNSFNCDCKLKWLVEWLGHTNATVEDIYCEGPPEYKKRKINSLSSKDFDCIITEFAKSQDLPYQSLSIDTFSYLNDEYVVIAQPFTGKCIFLEWDHVEKTFRNYDNITGTSTVVCKPIVIETQLYVIVAQLFGGSHIYKRDSFANKFIKIQDIEILKIRKPNDIETFKIENNWYFVVADSSKAGFTTIYKWNGNGFYSHQSLHAWYRDTDVEYLEIVRTPQTLRTPHLILSSSSQRPVIYQWNKATQLFTNQTDIPNMEDVYAVKHFSVKGDVYICLTRFIGDSKVMKWGGSSFQDIQRMPSRGSMVFQPLQINNYQYAILGSDYSFTQVYNWDAEKAKFVKFQELNVQAPRSFTHVSINKRNFLFASSFKGNTQIYKHVIVDLSA

In the test the parent is B1. As to the kind of experiment: pull-down. The settings on record: with LGI1-His6 [human]; Ni-NTA agarose; proteins secreted from HEK293T cells; n = 5 independent experiments; read off a plot.
As for chain 1 SKRQLRRYPRNVEEETKYIELMIVNDHLMFKKHRLSVVHTNTYAKSVVNMADLIYKDQLKTRIVLVAMETWATDNKFAISENPLITLREFMKYRRDFIKEKSDAVHLFSGSQFESSRSGAAYIGGICSLLKGGGVNEFGKTDLMAVTLAQSLAHNIGIISDKRKLASGECKCEDTWSGCIMGDTGAYLPKKFTQCNIEEYHDFLNSGGGACLFNKPSKLLDPPECGNGFIETGEECDCGTPAECVLEGAECCKKCTLTQDSQCSDGLCCKKCKFQPMGTVCREAVNDCDIRETCSGNSSQCAPNIHKMDGYSCDGVQGICFGGRCKTRDRQCKYIWGQKVTASDKYCYEKLNIEGTEKGNCGKDKDTWIQCNKRDVLCGYLLCTNIGNIPRLGELDGEITSTLVVQQGRTLNCSGGHVKLEEDVDLGYVEDGTPCGPQMMCLEHRCLPVASFNFSTCLSSKEGTICSGNGVCSNELKCVCNRHWIGSDCNTYFPHNDDAKTGITLSG [chain 1 Y186A], the percent of parent was 4 % of WT.
With chain 1 SKRQLRRYPRNVEEETKYIELMIVNDHLMFKKHRLSVVHTNTYAKSVVNMADLIYKDQLKTRIVLVAMETWATDNKFAISENPLITLREFMKYRRDFIKEKSDAVHLFSGSQFESSRSGAAYIGGICSLLKGGGVNEFGKTDLMAVTLAQSLAHNIGIISDKRKLASGECKCEDTWSGCIMGATGYYLPKKFTQCNIEEYHDFLNSGGGACLFNKPSKLLDPPECGNGFIETGEECDCGTPAECVLEGAECCKKCTLTQDSQCSDGLCCKKCKFQPMGTVCREAVNDCDIRETCSGNSSQCAPNIHKMDGYSCDGVQGICFGGRCKTRDRQCKYIWGQKVTASDKYCYEKLNIEGTEKGNCGKDKDTWIQCNKRDVLCGYLLCTNIGNIPRLGELDGEITSTLVVQQGRTLNCSGGHVKLEEDVDLGYVEDGTPCGPQMMCLEHRCLPVASFNFSTCLSSKEGTICSGNGVCSNELKCVCNRHWIGSDCNTYFPHNDDAKTGITLSG [chain 1 D183A] the figure was 37 % of WT.
